The text below walks through data of publication PMC11541587 (Nature Communications, 2024).

This assay concerns the target HA-AMFR (UniProt Q9UKV5 1-643). Kind of assay: co-IP.

Chain of HA-AMFR (Q9UKV5 whole entry): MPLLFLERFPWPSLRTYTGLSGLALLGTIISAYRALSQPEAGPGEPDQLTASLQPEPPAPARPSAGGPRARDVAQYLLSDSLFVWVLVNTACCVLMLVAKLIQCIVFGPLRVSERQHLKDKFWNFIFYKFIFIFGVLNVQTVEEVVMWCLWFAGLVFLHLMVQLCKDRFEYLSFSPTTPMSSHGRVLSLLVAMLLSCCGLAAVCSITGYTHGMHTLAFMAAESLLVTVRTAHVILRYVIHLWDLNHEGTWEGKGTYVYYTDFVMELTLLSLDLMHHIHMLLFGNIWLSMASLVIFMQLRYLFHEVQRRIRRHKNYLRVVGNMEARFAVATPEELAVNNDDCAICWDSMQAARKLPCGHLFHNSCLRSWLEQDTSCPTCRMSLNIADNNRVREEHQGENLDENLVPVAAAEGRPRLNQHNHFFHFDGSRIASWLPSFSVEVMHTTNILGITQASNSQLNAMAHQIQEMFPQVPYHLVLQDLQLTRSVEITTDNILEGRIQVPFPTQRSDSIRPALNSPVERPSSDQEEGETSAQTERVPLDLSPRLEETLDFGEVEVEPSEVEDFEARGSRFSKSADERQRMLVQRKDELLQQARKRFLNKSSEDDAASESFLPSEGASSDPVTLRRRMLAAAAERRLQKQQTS

B1: FAM134B (construct and tag not told for these supplementary panels) (natural protein)
chain: MASPAPPEHAEEGCPAPAAEEQAPPSPPPPQASPAERQQQEEEAQEAGAAEGAGLQVEEAAGRAAAAVTWLLGEPVLWLGCRADELLSWKRPLRSLLGFVAANLLFWFLALTPWRVYHLISVMILGRVIMQIIKDMVLSRTRGAQLWRSLSESWEVINSKPDERPRLSHCIAESWMNFSIFLQEMSLFKQQSPGKFCLLVCSVCTFFTILGSYIPGVILSYLLLLCAFLCPLFKCNDIGQKIYSKIKSVLLKLDFGIGEYINQKKRERSEADKEKSHKDDSELDFSALCPKISLTVAAKELSVSDTDVSEVSWTDNGTFNLSEGYTPQTDTSDDLDRPSEEVFSRDLSDFPSLENGMGTNDEDELSLGLPTELKRKKEQLDSGHRPSKETQSAAGLTLPLNSDQTFHLMSNLAGDVITAAVTAAIKDQLEGVQQALSQAAPIPEEDTDTEEGDDFELLDQSELDQIESELGLTQDQEAEAQQNKKSSGFLSNLLGGH
Consider B1, for which the binding result is “binds”.
